Assay results taken from the RNAGym collection of RNA variant scans (doi:10.7554/elife.90254).

B1: LINE1-full (parent)
chain: UACGUAGGUGGUUUUCCCCUGAUAGUGCUAAGGGGGCCUGGAAGUUUGGACUGGGCAGAGCUCAACACAGCGUGGCAAAGUGGCUGUGGCUAGACUGCCUCUCUGGAUUCCUCGUCACUCAGCAGGGCAUCUCUGAGAGAAAUGCC

Variants of: B1
Experiment: self-cleavage, relative activity (ratio to wild type); higher = more cleavage; in vitro, sequencing; the parent is a self-cleaving ribozyme

Variant	self-cleavage
A107C U130C	0
U46C U119A	1.26
U45G U73A	1.49
A43G A50U	0.64
G54U A78G	0.44
A42U A77G	1.72
U20C G36A	1.23
U9A G127U	1.92
A59C C146U	1.23
A67G C68A	0.05
U45A A67U	0.09
G48U G88C	0.04
U91C U119C	1.4
C37G A43G	1.36
A43C U81A	1.77
G60A U62A	0.01
U26A G33U	0.62
G8A U104A	1.25
A43U U132A	1.15
U47C U81C	1.51
C19A U46C	1.22
A50G A94U	0.27
U13A U115G	1.29
G72U A140G	0.6

Variant	self-cleavage
U73A C76U	2.51
G53A A69U	0.07
G36A A124U	0.31
U23C U109C	1.84
A67G C84U	0.04
A57G U130A	1.27
A117U G135A	1.79
A77G U143A	1.85
G53A U108C	1.97
A43G A136G	1.5
U9A A31G	1.35
U26A U102A	1.01
U52C C95G	0.09
U5C A138G	1.18
G89A U112A	0.05
G32U U100C	2.02
G88U	0.05
G48A G93U	0.03
G53U A78G	0.71
U85C U109G	0
U23C A92G	0.09
G8U A50G	1.19
G34U U62C	0.02
U26C C101A	0.85

Variant	self-cleavage
C103U A140U	1.72
U12C U108C	1.66
G8A A140G	1.55
U5A A67U	0.14
U12G U143C	1.23
C18A G89A	0.05
U9C A141U	1.53
C98U U108C	0.48
A22G U47A	1.15
A69G U112A	0.74
A30G U109C	1.71
G32U A67U	0.13
C113A A136G	0.91
U5G U119C	1.02
A94G A129G	0.11
U15C G49A	1.21
U9C U46C	1.08
A31G U73C	0.77
U87C U115C	0.31
U143G	1.11
A24U U85C	0.15
U23C U62A	0.06
A59G G126U	0.11
G34C U143C	2

Variant	self-cleavage
U45A A138U	1.31
U46G A69G	0
U15C G114A	0.71
U14C A78C	1.74
U119C A124U	1.58
C123U U130A	1.72
A50C A65U	0.31
U12C C133A	1.67
A67U A124C	0.17
U39A U52A	1.4
A2U U23C	0
G54A A64G	0.13
A64G C84U	0.1
U14C U87C	0.26
C84G A94U	0.13
A78G G89A	0.04
A67G G80A	0.79
U87A U102C	0.08
C3U A64G	0.21
U46C G139U	1.7
U1C U115A	0.98
A121G C128U	1.6
U85C A129U	0.19
A64G G88C	0.04

Variant	self-cleavage
G70A A107G	0.08
U26A G105U	0.57
A2C A138G	2.07
A64U U130A	0.62
C101U G126A	1.54
C101U A136G	1.8
U85A C116A	0
U9A U143C	0.94
A31G A117U	1
A2U A142C	1.09
U47G U73C	2.66
A57U U134A	0.1
A22U U29C	1.24
U45G G106C	0.92
A42G A50G	0.91
A92G A138G	0.08
A57G A78G	0.65
A43C U100A	1.41
U9C A94U	0.21
G44A A59G	0.03
U14C A42G	1.15
G48A A136G	1.62
A59G C113A	0.07
A141G	1.1

Variant	self-cleavage
C3U U112A	1.38
A6G U15A	0.58
A43G A94G	0.36
G4U A142G	1.46
A94U A140U	0.26
A42G C145U	1.26
U52A G55A	0.3
A77U A117U	1.21
U26C A107C	1.89
A129U A142G	1.43
U9A U134C	1.4
C66U U96A	0.02
A50G U81A	1.3
U14A U26A	0.79
G11U A79U	1.75
C3A U96C	0.2
U20C A124U	1.17
U13C U73A	1.39
U62A C131U	0.02
U13A A69C	0.08
U52C U62C	0.03
U29C C84G	0.14
A22G U85G	0.45
U115C A140U	1.39

Variant	self-cleavage
U45C A94U	0.33
G36A U46C	1.32
A64C A142U	0.37
G40A U87A	0.06
U119A G126A	1.3
U15G G44U	0.96
A64U A79U	0.64
U109C A121G	1.58
A57G A65G	0.1
U15C U45A	1.49
C128U A140U	1.36
U39C A136U	1.25
U62A U130C	0.05
A69U U73G	0.31
U29A U73C	1.63
A43G A92U	0.92
A30G A69U	0.19
C68U U134C	0.17
A64U C111A	0.35
A79G U132C	1.43
A24G A77C	2.04
U45C C90U	0.08
U26C A136U	1.82
